For test [1], the target named is Pertuzumab kappa light chain S121K_S176E_T178E. Put plainly: LCCA.
Test [2] addresses CAT-2200 lambda light chain S122D_E124Q_T131R. Put plainly: LCCA, SPR tag read-out.
Test [3] concerns the target Pertuzumab kappa light chain S121K_S131D_V133G_T178F. Kind of test: LCCA, SPR tag read-out.
Test [4] has as its target Pertuzumab kappa light chain S121K_V133I_S176D_T178E. Put plainly: LCCA, SPR tag read-out.
Test [5] has as its target CAT-2200 lambda light chain S122D_E124Q_T131R. Put plainly: LCCA, SPR tag read-out. The source holds these as a separate data set.
The target of test [6] is CAT-2200 lambda light chain, wild type (L1), N-terminal FLAG tag. Put plainly: LCCA, SPR of light chain tags.
Test [7] addresses Pertuzumab kappa light chain V133I_L135A_S176D_T178E. Kind of test: LCCA, SPR tag read-out.
Test [8] addresses CAT-2200 lambda light chain S122D_K129T_S180E. Put plainly: LCCA.
Test [9] concerns the target Pertuzumab kappa light chain S121K_Q124R_Q160K_T178R. Kind of test: LCCA.
Test [10] addresses Pertuzumab kappa light chain S121K_Q124R_T178R. Kind of test: LCCA.
Test [11] addresses CAT-2200 lambda light chain S122D_K129T_S180E. Put plainly: LCCA. The source holds these as a separate data set.
Test [12] addresses CAT-2200 lambda light chain S122D_K129T_S176D_Y178T. Put plainly: LCCA, SPR tag read-out.
For test [13], the target named is CAT-2200 lambda light chain S122D_K129T_S176E_Y178E. Put plainly: LCCA, SPR tag read-out.
Test [14] addresses CAT-2200 lambda light chain S122D_K129T_V133D. Put plainly: LCCA, SPR tag read-out.
In test [15] the target is Pertuzumab kappa light chain S121K_Q124R_T178R. Kind of test: LCCA, SPR tag read-out.
The target is the same in test [16]. Put plainly: LCCA, SPR tag read-out. The source holds these as a separate data set.
For test [17] the target is unchanged. Kind of test: LCCA, SPR tag read-out. The source holds these as a separate data set.
The target in test [18] is Pertuzumab kappa light chain Q124E_V133D. Kind of test: LCCA, SPR.
Test [19] addresses CAT-2200 lambda light chain E124Q_T131R. Kind of test: LCCA, SPR.
The target is the same in test [20]. Put plainly: LCCA, SPR tag read-out.
Test [21] addresses Pertuzumab kappa light chain Q124E_V133D_L135W_T180D. Kind of test: LCCA, SPR tag read-out.
In test [22] the target is Pertuzumab kappa light chain Q124E_V133D_L135W. Put plainly: LCCA, SPR tag read-out.
In test [23] the target is Pertuzumab kappa light chain Q124E_V133D_T180D. Kind of test: LCCA, SPR tag read-out.
In test [24] the target is CAT-2200 lambda light chain E124Q_T131R. Kind of test: LCCA, SPR tag read-out. This is another data set of the same source.
Test [25] concerns the target Pertuzumab kappa light chain S121K_Q124E_V133D_T180D. Put plainly: LCCA, SPR tag read-out.
Test [26] addresses Pertuzumab kappa light chain S121K_Q124E_V133D. Kind of test: LCCA, SPR tag read-out.
Test [27] concerns the target CAT-2200 lambda light chain Y178K. Put plainly: LCCA.
The target in test [28] is Pertuzumab kappa light chain Q124E_V133D_S176D_T178E. Put plainly: LCCA.
Test [29] has as its target Pertuzumab kappa light chain Q124E_V133D_T178E. Kind of test: LCCA.
In test [30] the target is Pertuzumab kappa light chain Q124E_V133D_S176D_T178E. Put plainly: LCCA. The source holds these as a separate data set.
The target of test [31] is Pertuzumab kappa light chain Q124E_V133D_T178E. Kind of test: LCCA. This is another data set of the same source.
Test [32] addresses Pertuzumab kappa light chain Q124E_V133D_S176D_T178D. Put plainly: LCCA, SPR tag read-out.
The target of test [33] is Pertuzumab kappa light chain Q124E_V133D_S176D_T178E. Put plainly: LCCA, SPR tag read-out.
In test [34] the target is Pertuzumab kappa light chain Q124K_L135A_T178R. Kind of test: LCCA.
The target in test [35] is Pertuzumab kappa light chain Q124R_L135A_Q160K_T178R. Put plainly: LCCA.
Test [36] has as its target CAT-2200 lambda light chain T116F_K129T_V133D_S176F. Kind of test: LCCA, SPR tag read-out.
For test [37], the target named is Pertuzumab kappa light chain Q124R_L135A_T178R. Kind of test: LCCA, SPR tag read-out.
For test [38], the target named is Pertuzumab kappa light chain V133G_L135W_S176D_T180E. Kind of test: LCCA.
The target in test [39] is Pertuzumab kappa light chain V133G_L135W_S176D. Kind of test: LCCA.
Test [40] addresses Pertuzumab kappa light chain V133G_S176D_T180E. Put plainly: LCCA.
Test [41] addresses Pertuzumab kappa light chain V133G_S176D. Kind of test: LCCA.
Test [42] concerns the target CAT-2200 lambda light chain S122D_Y178K. Put plainly: LCCA.
In test [43] the target is Pertuzumab kappa light chain S121K_V133G_S176D. Kind of test: LCCA.
Test [44] concerns the target Pertuzumab kappa light chain S131K_S176K. Put plainly: LCCA.
For test [45], the target named is Pertuzumab kappa light chain S131K_L135W_S176K. Kind of test: LCCA.
In test [46] the target is Pertuzumab kappa light chain S131K_S176K. Put plainly: LCCA. This is another data set of the same source.
Test [47] has the same target. Put plainly: LCCA. This is another data set of the same source.
The target is the same in test [48]. Kind of test: LCCA. The source holds these as a separate data set.
For test [49], the target named is CAT-2200 lambda light chain S122D_Y178K. Put plainly: LCCA, SPR tag read-out.
Test [50] concerns the target Pertuzumab kappa light chain S121K_V133G_S176D_T180E. Put plainly: LCCA, SPR tag read-out.
For test [51] the target is unchanged. Put plainly: LCCA, SPR tag read-out. The source holds these as a separate data set.
Test [52] shares this target. Kind of test: LCCA, SPR tag read-out. The source holds these as a separate data set.
Test [53] addresses Pertuzumab kappa light chain V133G_L135A_S176D_T180E. Kind of test: LCCA, SPR tag read-out.
In test [54] the target is Pertuzumab kappa light chain S121K_S131K_S176K. Put plainly: LCCA.
Test [55] has the same target. Put plainly: LCCA. The source holds these as a separate data set.
Test [56] has as its target Pertuzumab kappa light chain Q124E_V133G_S176D_T178E_T180E. Kind of test: LCCA.
For test [57], the target named is Pertuzumab kappa light chain Q124E_V133G_S176D_T180E. Put plainly: LCCA.
For test [58], the target named is Pertuzumab kappa light chain Q124E_V133G_S176D. Kind of test: LCCA.
The target in test [59] is Pertuzumab kappa light chain Q124E_V133G_S176D_T180E. Kind of test: LCCA. The source holds these as a separate data set.
For test [60], the target named is Pertuzumab kappa light chain Q124E_V133G_S176D. Kind of test: LCCA. The source holds these as a separate data set.

Where two headings read alike, the source gives them in different places.

With Pertuzumab Fab heavy chain S188K_K228D, the H2L2:H2L1 median scalar value in test [1] was 2.83 ln; in test [3], -0.08 ln(ratio); in [4] it was 1.74 ln(ratio). Also, the H2L2:H2L1 normalized median ratio is 53% in test [2], 47% in [3], 85% in test [4] and 15% in test [5].
As to “CAT-2200 Fab heavy chain, wild type (H1), ABD2-His6 tagged”, the H1L1:H1L2 normalized median scalar value ln(r1/f1) in test [6] was found to be 0.48.
Consider Pertuzumab Fab heavy chain S188K_V190F, for which the H2L2:H2L1 median scalar value in [7] is 0.88 ln(ratio).
For the substance “Pertuzumab Fab heavy chain L143E_K145T_Q179E_K228D”, the H2L2:H2L1 normalized median ratio in test [8] is 33%; in test [9], 75%; in test [10], 67%; in test [11] it was 25%; in [12] it was 8%; in [13], 5%. Besides, the H2L2:H2L1 normalized median ratio in test [14] was 34%; in [15], 95%; in test [16], 92%; in [17], 66%. Also, the H2L2:H2L1 median scalar value was 1.15 ln in [9]; 0.72 ln in test [10]; 3.5 ln(ratio) in [15]; 2.56 ln(ratio) in test [16]; 1.1 ln(ratio) in test [17].
In the case of Pertuzumab Fab heavy chain L143R, the H2L2:H2L1 normalized median ratio in test [18] was 96%; in test [19], 4%; in test [20], 15%; in test [22] it was 89%; in [23] it was 85%; in [24], 11%. Also, the H2L2:H2L1 normalized median scalar value ln(r1/f1) in test [18] is 3.06. For the same substance, the H2L2:H2L1 median scalar value is 0.87 ln(ratio) in [21], 2.13 ln(ratio) in test [22] and 1.72 ln(ratio) in test [23].
For Pertuzumab Fab heavy chain L143R_K228D, the results for the H2L2:H2L1 normalized median ratio in test [2] and in test [26] were 26% and 74%, respectively. The H2L2:H2L1 median scalar value in test [25] is -0.2 ln(ratio); in test [26] it was 1.08 ln(ratio).
With Pertuzumab Fab heavy chain L143R_S188K, the H2L2:H2L1 normalized median ratio in [27] was 22%. Also, the H2L2:H2L1 median scalar value in test [28] is -0.02 ln; in test [29], 1.31 ln; in test [30], 1.21 ln; in test [31], 1.45 ln; in test [32] it was 0.02 ln(ratio); in test [33], 1.21 ln(ratio).
Regarding “Pertuzumab Fab heavy chain L143E_K145T_Q179E_V190F”, the H2L2:H2L1 median scalar value in test [34] was -0.51 ln; in test [35] it was -0.29 ln; in test [37], 0.99 ln(ratio). For the same substance, the H2L2:H2L1 normalized median ratio in test [36] stood at 27%; in [37], 73%.
As for Pertuzumab Fab heavy chain L124R, the H2L2:H2L1 normalized median ratio in [27] amounted to 9%; in test [40], 91%. For the same substance, the H2L2:H2L1 median scalar value in [38] amounted to 0.29 ln; in test [39] it was 0.55 ln; in [40], 2.34 ln; in [41], 2.2 ln.
Take Pertuzumab Fab heavy chain L124R_K228D: in [42], the H2L2:H2L1 normalized median ratio stood at 33%. For the same substance, in [43], the H2L2:H2L1 median scalar value worked out at 1.97 ln and the H2L2:H2L1 normalized median ratio amounted to 67%.
As to Pertuzumab Fab heavy chain K145T_S186E, the H2L2:H2L1 median scalar value in test [44] is 2.25 ln; in test [45], -0.33 ln; in test [46], 0.9 ln; in test [47] it was 1.58 ln; in test [48] it was 0.53 ln.
Consider “Pertuzumab Fab heavy chain L124R_S186R_K228D”, for which the figures for the H2L2:H2L1 normalized median ratio in [49] and in [50] were 34% and 66%, respectively. For the same substance, the results for the H2L2:H2L1 median scalar value in [50], in test [51] and in test [52] were 1.83 ln(ratio), -0.49 ln(ratio) and -0.52 ln(ratio), respectively.
Turning to “Pertuzumab Fab heavy chain L124R_S186K_V190F”, the H2L2:H2L1 median scalar value in [53] was -0.44 ln(ratio).
For “Pertuzumab Fab heavy chain K145T_S186E_K228D”, the H2L2:H2L1 median scalar value in test [54] is 1.21 ln; in [55], 0.33 ln.
Regarding Pertuzumab Fab heavy chain L124R_L143K, the results for the H2L2:H2L1 normalized median ratio in test [27] and in [56] were 49% and 51%, respectively. Also, the H2L2:H2L1 median scalar value in [56] stood at 0.07 ln; in [57], 0.35 ln; in test [58], 0.45 ln; in [59] it was 0.25 ln; in test [60], 0.55 ln.

The values are drawn from patent US20190338048A1.
